These results are taken from US20220411532A1 (GUNDERSEN LUTHERAN MEDICAL FOUNDATION, published 2022).

For experiment [1], the target named is T1, peptide representing uncleaved AREG (human).
T1 construct: also called full length AREG peptide; intact AREG
T1 peptide: SMKTHSMIDSSLSKIAC
Description: ELISA on peptides representing cleaved and uncleaved AREG.

Experiment [2] concerns the target T2, cleaved amphiregulin (cell-associated transmembrane stalk left after TACE/ADAM17 cleavage of human AREG) (human, UniProt P15514 188-252).
T2 construct: Endogenous protein on MCF7 cells and in formalin-fixed human tumor tissue; also called cleaved AREG; cell surface cleaved AREG
T2 sequence: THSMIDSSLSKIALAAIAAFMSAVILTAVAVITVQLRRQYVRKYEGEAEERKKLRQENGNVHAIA
Description: live-cell fluorescence imaging of MCF-7 cells with 1A3-pHrodo. As for the experimental part:
In order to study internalization, 1A3 was conjugated with pHrodo iFL Red dye using pHrodo iFL Red Microscale Protein Labeling Kit (P36014, Thermo Fisher Scientific). MCF7 cells were seeded in 12 mm Nunc Glass Bottom Dish, at a density of 1×10⁵ cells/dish. After allowing the cells to attach overnight, the cells were incubated for 60 min with […] Hoechst dye for nuclei staining and LysoTracker® Green DND-26 (Thermo Fisher Scientific) for lysosomal labeling. The cells were then incubated with 1A3-pHrodo (2 μg/mL) for 20 min at 37° C. After washing the wells with PBS, the cells were supplemented with 1× live-cell imaging solution (Molecular probes, Thermo Fisher Scientific). Fluorescence images were acquired at 30 min intervals for 2.5 h with the Olympus 1X71 inverted fluorescence microscope (Olympus, Shinjuku, Tokyo, Japan). TAPI-2 (20 μM)—pre-treatment was performed overnight, with DMSO serving as a control.

In experiment [3] the target is T2, cleaved amphiregulin (cell-associated …). Briefly: immunohistochemistry on a breast tumor tissue micro-array, 10 µg/mL antibody. How it is done:
A breast disease spectrum tissue micro-array was purchased from US Biomax Inc. (Derwood, Md., USA). The slides were deparaffinized in xylene and rehydrated by serial incubations in graded ethanol and then in water in a Histo-Tek® SL Slide Stainer (Sakura Finetek USA, Inc., Torrance, Calif., USA). Antigen retrieval was performed in a steamer by boiling slides in a container of citrate buffer (pH 6.0) for 20 min, which was then removed for 15 min of cooling on the benchtop. Slides were washed in 1× Wash buffer (Dako Agilent, Santa Clara, Calif., USA) and endogenous peroxidase was quenched by incubating with Dako Dual Endogenous Enzyme Block (S2003) for 10 min. […] Slides were washed four times in 1× Wash buffer, followed by the incubation for 45 min at room temperature in 1:100 dilution of […] immunoglobulins/HRP (Dako, P0160 or ready-to-use goat anti-rabbit HRP labeled polymer (Dako, K4003). The slides were washed twice in 1× Wash buffer and the color was developed with 3,3-diaminobenzidine tetrahydrochloride substrate chromogen system (K3468, DAKO, Santa Clara, Calif., USA). Sections were washed with water and counterstained with hematoxylin, rinsed with water, dehydrated by serial ethanol washes to 100%, cleared and mounted in Permount (Thermo Fisher Scientific). […]

B1: GMF-3E4 rabbit monoclonal IgG antibody (antibody, V domains shown)
VH: QSVKESEGRLVTPGTPLTLTCTVSGFSLSDYWMSWVRQAPGKGLEWIGIAGYSDNTYYASRAKGRFTISKTSTTVVLKITRPTTEDTATYFCVRDLYGVYSSGTTLWGPGTLVTVSS
VL: ELVMTQTPSPVSAAVGGTVTISCQSSQSVYNNNRLAWFQQKPGQPPKLLIYYASTLASGVSSRFKGSGSGTQFTLIISDVVCDDAATYYCQGYYSGGITGFGGGTEVVVK
Consider B1, for which, in experiment [1], the binding result is “no binding”.

B2: 1A3 conjugated with pHrodo iFL Red dye (antibody, V domains shown)
VH: QSVKESEGRLVTPGTPLRLTCTVAGYSLSRYHMCWVRQAPGKGLEWIGMIGGSGRTDYASWAKGRFTISKTSTTVDLKITSPTTEDTATYFCSTVYTDSDGDFWGPGTLVTVSS
VL: ELDMTQTPSSKSVPVGGTVTINCQASESVYSNDRLAWFQQKPGQPPKLLIYYASTLASGVPSRFKGSGSGTQFTLTISDLECADAATYYCQSCYDMSSYGVAFGGGTELEIL
modifications: pHrodo iFL Red dye conjugated to the antibody; positions not given
notes: also called 1A3-pHrodo; 1A3 pHrodo
In the case of B2, the binding result in experiment [2] was “binds”.

B3: GMF-1A3 rabbit monoclonal IgG antibody (antibody, V domains shown)
VH: QSVKESEGRLVTPGTPLRLTCTVAGYSLSRYHMCWVRQAPGKGLEWIGMIGGSGRTDYASWAKGRFTISKTSTTVDLKITSPTTEDTATYFCSTVYTDSDGDFWGPGTLVTVSS
VL: ELDMTQTPSSKSVPVGGTVTINCQASESVYSNDRLAWFQQKPGQPPKLLIYYASTLASGVPSRFKGSGSGTQFTLTISDLECADAATYYCQSCYDMSSYGVAFGGGTELEIL
notes: also called anti-cleaved-AREG 1A3 antibody; unconjugated 1A3
For the molecule B3, the binding result in experiment [3] is on record as “binds”; in experiment [1], “no binding”.
